One experiment deals with T1, monkey FcRn (monkey, UniProt Q8SPV9).
T1 chain 1: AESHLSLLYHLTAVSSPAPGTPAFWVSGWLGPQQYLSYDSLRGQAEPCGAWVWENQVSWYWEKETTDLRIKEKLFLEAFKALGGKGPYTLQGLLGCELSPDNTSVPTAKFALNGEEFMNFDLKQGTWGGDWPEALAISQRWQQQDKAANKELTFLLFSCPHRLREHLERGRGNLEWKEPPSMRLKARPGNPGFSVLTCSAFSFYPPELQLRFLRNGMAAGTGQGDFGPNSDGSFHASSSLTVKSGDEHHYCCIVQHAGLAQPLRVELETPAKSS
T1 chain 2: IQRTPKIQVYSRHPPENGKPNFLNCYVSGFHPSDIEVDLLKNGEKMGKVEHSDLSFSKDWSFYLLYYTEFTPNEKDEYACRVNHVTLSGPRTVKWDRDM
In words: SPR, pH 6.0, 25C.

In experiment [1] the target is T2, human FcRn (human, UniProt P55899). Kind of experiment: SPR, pH 7.4, 25C.
Experiment [2] concerns the target T2, human FcRn. In words: SPR, pH 6.0, 25C. (Surface plasmon resonance follows binding to a sensor surface in real time, without labels.)
For experiment [3], the target named is T2, human FcRn. Kind of experiment: SPR, pH 6.0, 25C. This is another data set of the same source.
A further experiment addresses T3, mouse FcRn (mouse, UniProt Q61559).
T3 chain 1: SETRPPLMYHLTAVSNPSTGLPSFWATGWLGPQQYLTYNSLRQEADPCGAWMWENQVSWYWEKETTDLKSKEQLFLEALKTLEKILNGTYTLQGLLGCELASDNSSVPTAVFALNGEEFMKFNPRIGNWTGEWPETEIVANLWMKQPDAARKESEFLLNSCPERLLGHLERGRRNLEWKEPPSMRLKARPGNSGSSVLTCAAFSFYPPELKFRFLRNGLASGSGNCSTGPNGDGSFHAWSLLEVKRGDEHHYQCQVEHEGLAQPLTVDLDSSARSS
T3 chain 2: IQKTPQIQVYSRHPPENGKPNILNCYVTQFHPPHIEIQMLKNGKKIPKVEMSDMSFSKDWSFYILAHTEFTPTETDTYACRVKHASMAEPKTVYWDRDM
Kind of experiment: SPR, pH 6.0, 25C.

Positions count from the first letter of the chain named.

B1: H11A4.3 (monomer) (protein)
chain: MGWSCIILFLVATATGVHSSDKTHTCPPCPAPEAAGGPSVFLFPPKPKDTLYITREPEVTCVVVDVSHEDPEVKFNWYVDGVEVHNAKTKPREEQYNSTYRVVSVLNPYHQDWLNGKEYKCKVSNKALGAPIEKTISKAKGQPREPQVYTLPPSREEMTKNQVSLTCLVKGFYPSDIAVEWESNGQPENNYKTTPPVLDSDGSFFLYSKLTVDKSRWQQGNVFSCSVMHEALRWHYTQKSLSLSPGK
For orientation: Kd means the free concentration of one partner at which half of the binding sites on the other are occupied at equilibrium, for simple one-to-one binding. As for B1, the Kd with monkey FcRn came to 1.38 nM; with human FcRn [1], 7.62 nM; with human FcRn [2] it was 0.288 nM; with human FcRn [3], 0.288 nM; with mouse FcRn, 0.839 nM.

B2: H11A4.2 (monomer) (protein)
chain: B1 chain with A34L, A35L, G129P, E156D, M158L
As for B2, the Kd with monkey FcRn was determined as 0.592 nM; with human FcRn [1] it was 3.51 nM; with human FcRn [2] it was 0.292 nM; with human FcRn [3], 0.292 nM; with mouse FcRn it was 0.0556 nM.

B3: H11A4.1 (Monomer) (protein)
chain: B1 chain with Y52M, T54S, E56T
In the case of B3, the Kd worked out at 0.928 nM with monkey FcRn; 15.2 nM with human FcRn [1]; 0.7 nM with human FcRn [2]; 0.559 nM with human FcRn [3]; 0.0918 nM with mouse FcRn.

B4: A3 H11A4.3 (mAb) (antibody)
chain 1: not shown
chain 2: MGWSCIILFLVATATGVHSQSALTQPASVSGSPGQSITISCTGTSSDVGGYNYVSWYQQHPGKAPKLMIYDVSKRPSGVSNRFSGSKSGNTASLTISGLQSEDEADYYCNSLTSISTWVFGGGTKLTVLGQPKANPTVTLFPPSSEELQANKATLVCLISDFYPGAVTVAWKADGSPVKAGVETTKPSKQSNNKYAASSYLSLTPEQWKSHRSYSCQVTHEGSTVEKTVAPTECS
With B4, the Kd amounted to 3.76 nM in the experiment with monkey FcRn; 18.8 nM with human FcRn [1]; 0.803 nM with human FcRn [2]; 0.803 nM with human FcRn [3]; 2.57 nM with mouse FcRn.

B5: A3 H11A4.1 (mAb) (antibody)
chain 1: not shown
chain 2: B4 chain 2
As for B5, the Kd with monkey FcRn is 3.13 nM; with human FcRn [1] it was 29.6 nM; with human FcRn [2] it was 2.6 nM; with human FcRn [3] it was 1.93 nM; with mouse FcRn it was 0.165 nM.

B6: A3 H11A4.2 (mAb) (antibody)
chain 1: not shown
chain 2: B4 chain 2
With B6, the Kd in the experiment with monkey FcRn is 0.914 nM; with human FcRn [1], 11.2 nM; with human FcRn [2], 1.04 nM; with human FcRn [3], 1.04 nM; with mouse FcRn it was 0.113 nM.

B7: W11A4.1 (Dimer) (protein)
chain: MGWSCIILFLVATATGVHSSDKTHTCPPCPAPEAAGGPSVFLFPPKPKDTLMISRTPEVTCVVVDVSHEDPEVKFNWYVDGVEVHNAKTKPREEQYNSTYRVVSVLNPYHQDWLNGKEYKCKVSNKALGAPIEKTISKAKGQPREPQVYTLPPSRDELTKNQVSLTCLVKGFYPSDIAVEWESNGQPENNYKTTPPVLDSDGSFFLYSKLTVDKSRWQQGNVFSCSVMHEALRWHYTQKSLSLSPGKGGGSGGGSGGGSGGGSSGGGSSSDKTHTSPPSPAPEAAGGPSVFLFPPKPKDTLMISRTPEVTCVVVDVSHEDPEVKFNWYVDGVEVHNAKTKPREEQYNSTYRVVSVLNPYHQDWLNGKEYKCKVSNKALGAPIEKTISKAKGQPREPQVYTLPPSRDELTKNQVSLTCLVKGFYPSDIAVEWESNGQPENNYKTTPPVLDSDGSFFLYSKLTVDKSRWQQGNVFSCSVMHEALRWHYTQKSLSLSPGK
For the molecule B7, in the experiment with human FcRn [3], the affinity, expressed as Kd, was 1.68 nM.

B8: B14 H11A4.1 (mAb) (antibody)
chain 1: MGWSCIILFLVATATGVHSQVQLVESGGGLVKPGGSLRLSCAASGFTFSDYYMSWIRQAPGKGLEWVSYITYSGSTIYYADSVKGRFTISRDNAKSSLYLQMNSLRAEDTAVYYCARDRGTTMVPFDYWGQGTLVTVSSASTKGPSVFPLAPSSKSTSGGTAALGCLVKDYFPEPVTVSWNSGALTSGVHTFPAVLQSSGLYSLSSVVTVPSSSLGTQTYICNVNHKPSNTKVDKKVEPKSCDKTHTCPPCPAPEAAGGPSVFLFPPKPKDTLMISRTPEVTCVVVDVSHEDPEVKFNWYVDGVEVHNAKTKPREEQYNSTYRVVSVLNPYHQDWLNGKEYKCKVSNKALGAPIEKTISKAKGQPREPQVYTLPPSREEMTKNQVSLTCLVKGFYPSDIAVEWESNGQPENNYKTTPPVLDSDGSFFLYSKLTVDKSRWQQGNVFSCSVMHEALRWHYTQKSLSLSPGK
chain 2: not shown
With B8, the Kd with monkey FcRn was 4.26 nM; with human FcRn [1] it was 34.1 nM; with human FcRn [2] it was 3.3 nM; with human FcRn [3], 2.85 nM; with mouse FcRn it was 0.189 nM.

B9: B14 H11A4.2 (mAb) (antibody)
chain 1: B8 chain 1 with A256L, A257L, M274Y, S276T, T278E, G351P
chain 2: not shown
B9 came in with a dissociation constant (Kd) in the experiment with human FcRn [3] of 1.74 nM.

B10: B14 H11A4.3 (mAb) (antibody)
chain 1: B8 chain 1 with M274Y, S276T, T278E
chain 2: not shown
As for B10, the dissociation constant (Kd) in the experiment with monkey FcRn came to 2.45 nM; with human FcRn [1], 15.1 nM; with human FcRn [2] it was 1.23 nM; with human FcRn [3], 1.23 nM; in the experiment with mouse FcRn, 0.782 nM.

The values are drawn from patent US20260374875 (published 2026).
